Our source for the binding result and Kd values is patent US20160130329A1 (UNIVERSITY OF CHICAGO, published 2016).

The target in test [1] is T1, H3K27me3 peptide (trimethyl-lysine at K27 (histone H3 numbering); biotinylated through the GYCD tag).
T1 peptide: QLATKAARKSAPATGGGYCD
Nature of the test: yeast display, flow cytometry [A]. In general terms: A flow cytometer gives signals particle by particle.

In test [2] the target is T2, H3K4me3 peptide (also: biotinylated, site not given here).
T2 peptide: ART[Lys(Me3)]QTARKSTGGYCD
Briefly: yeast display, flow cytometry [A].

In test [3] the target is T3, H4K20me3 peptide (trimethyl-lysine at K20 (histone H4 numbering); biotinylated through the GYCD tag).
T3 peptide: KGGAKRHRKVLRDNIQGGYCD
Briefly: phage ELISA [A].

For test [4], the target named is T3, H4K20me3 peptide. Nature of the test: phage ELISA [B]. On the technique in general: ELISA stands for enzyme-linked immunosorbent assay.
The target of test [5] is T1, H3K27me3 peptide. Briefly: phage ELISA [B].
The target of test [6] is T1, H3K27me3 peptide. Nature of the test: yeast display, flow cytometry [B].
The target in test [7] is T4, H3K36me3 peptide (K(me3) at H3 K36; K(biotin) near the C-terminus, as printed: SAPATGGVK-K(me3)-PHRYRPGG-K(biotin)-D).
T4 peptide: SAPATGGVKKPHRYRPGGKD
Nature of the test: yeast display, flow cytometry [B].

Test [8] addresses T1, H3K27me3 peptide. Nature of the test: phage ELISA [A].
The target of test [9] is T2, H3K4me3 peptide. Briefly: phage ELISA [A].
Test [10] has as its target T3, H4K20me3 peptide. Nature of the test: yeast display, flow cytometry [A].
The target of test [11] is T2, H3K4me3 peptide. Briefly: yeast display, flow cytometry [B].
Test [12] concerns the target T4, H3K36me3 peptide. Nature of the test: phage ELISA.
The target of test [13] is T2, H3K4me3 peptide. Nature of the test: phage ELISA.
Test [14] concerns the target T2, H3K4me3 peptide. Briefly: yeast display of the scFv, peptide titration, flow cytometry.
Test [15] deals with T2, H3K4me3 peptide. The description is as above.

Positions count from the first letter of the chain named. Like-named read-outs stand apart in the source and are kept apart here. Where no end group is shown, it is not given here. [ ]: non-standard residue; d: D form. Lys(Me3) = C[N+](C)(C)CCCC[C@H](N)C(=O)O

B1: 36H1 (scFv)
scFv: EVQLVETGGGVVQPGRSLRLSCTASGFTFRDYWMSWVRQAPGKGLEWVADISKEGKYMYYLDAVKGRFTISRDNAKSSLYLQMNSLGAEDTAVYYCARDLNYGAGWHFDLWGRGTLVTVSSSYVLTQPPSVSVAPGQTARITCGGTNIGDISVHWYQQRPGQAPLVVVYDDSDRPSGIPERFSGSNSGNTATLTISRVEAGDEADYYCQVWDDSINAYVFGTGTKVTVL
Turning to B1, the binding result with H3K27me3 peptide [1] and with H3K4me3 peptide [2] was “no binding (tested: 500 nM)” each time.

B2: 9H3 (scFv)
scFv: B1 scFv with K53Q, E54D, K56E, Y57S, M58R, L61V, N101L, Y102S, A104Y
With B2, the binding result with H4K20me3 peptide [3] is reported as “no binding (tested: 100 nM peptide)”.

B3: 36H5 (scFv)
scFv: B1 scFv with M34V
For B3, the binding result with H3K27me3 peptide [1] and with H3K4me3 peptide [2] was “no binding (tested: 500 nM)” in each case.

B4: 4H2 (scFv)
scFv: B1 scFv with E54D, K56S, Y57A, M58S, L61V, L100F, N101V, Y102S, A104Y
For the molecule B4, the binding result in the test with H4K20me3 peptide [4] and in the test with H3K27me3 peptide [5] was “no binding (tested: 100 nM peptide)” throughout.

B5: 36H2 (scFv)
scFv: B1 scFv with Y32H
As for B5, the binding result with H3K27me3 peptide [1] and in the test with H3K4me3 peptide [2] was “no binding (tested: 500 nM)” throughout.

B6: 4H1 (scFv)
scFv: EVQLVETGGGVVQPGRSLRLSCTASGFTFRDYWMSWVRQAPGKGLEWVADIGEHGSFSYYLDAVKGRFTISRDNAKSSLYLQMNSLGAEDTAVYYCARNFSRGYGWHFDLWGRGTLVTVSSSYVLTQPPSVSVAPGQTARITCGGTNIGDISVHWYQQRPGQAPLVVVYDDSDRPSGIPERFSGSNSGNTATLTISRVEAGDEADYYCQVWDDSINAYVFGTGTKVTVL
Regarding B6, the binding result with H4K20me3 peptide [4] and in the test with H3K27me3 peptide [5] was “no binding (tested: 100 nM peptide)” each time.

B7: 20H3 (scFv)
scFv: B1 scFv with K53Q, K56S, Y57W, M58A, L100F, N101P, Y102H, A104S
On to B7, for which the binding result in the test with H3K27me3 peptide [6] and with H3K36me3 peptide [7] was “no binding (tested: 500 nM)” throughout.

B8: 9H2 (scFv)
scFv: B1 scFv with Y32H, S52D, K53Q, K56R, Y57W, M58G, L100F, N101L, Y102V, A104F
B8: the binding result in the test with H4K20me3 peptide [3], in the test with H3K27me3 peptide [8] and with H3K4me3 peptide [9] was “no binding (tested: 100 nM peptide)” in each case.

B9: 4H3 (scFv)
scFv: B6 scFv with Y32N, G52A, H54D, S56K, F57A, S58M, L61I, N99V
With B9, the binding result with H4K20me3 peptide [4] was “no binding (tested: 100 nM peptide)”.

B10: 36H3 (scFv)
scFv: B1 scFv with I51L, S52N, E54D, M58A, L100F, N101V, Y102R, A104S
B10: the binding result with H4K20me3 peptide [10], in the test with H3K27me3 peptide [1] and in the test with H3K4me3 peptide [2] was “no binding (tested: 500 nM)” each time.

B11: 36H4 (scFv)
scFv: B1 scFv with Y32H, L110V
Take B11: the binding result with H3K27me3 peptide [1] and with H3K4me3 peptide [2] was “no binding (tested: 500 nM)” in each case.

B12: 20H1 (scFv)
scFv: EVQLVETGGGVVQPGRSLRLSCTASGFTFRDNWMSWVRQAPGKGLEWVADINQNGRYFYYIDAVKGRFTISRDNAKSSLYLQMNSLGAEDTAVYYCARAFQRGRGWHFDLWGRGTLVTVSSSYVLTQPPSVSVAPGQTARITCGGTNIGDISVHWYQQRPGQAPLVVVYDDSDRPSGIPERFSGSNSGNTATLTISRVEAGDEADYYCQVWDDSINAYVFGTGTKVTVL
Regarding B12, the binding result with H3K27me3 peptide [6], in the test with H3K36me3 peptide [7] and with H3K4me3 peptide [11] was “no binding (tested: 500 nM)” each time.

B13: 27F40 (scFv)
scFv: EVQLVETGGGVVQPGRSLRLSCTASGFTFRDYWMSWVRQAPGKGLEWVADINPDGITRYYIDAVKGRFTISRDNAKSSLYLQMNSLGAEDTAVYYCAREFTNVYGWHFDLWGRGTLVTVSSSYVLTQPPSVSVAPGQTARITCGGTNISNTYVHWYQQRPGQAPLVVVYSSPARPSGIPERFSGSNSGNTATLTISRVEAGDEADYYCQVWDDSINAYVFGTGTKVTVL
For B13, the binding result with H3K36me3 peptide [12] was “no binding (tested: 100 nM peptide)”.

B14: 27F52 (scFv)
scFv: B13 scFv with T101N, S149N, N150D, P172D, A173P
For B14, the binding result with H3K36me3 peptide [12] was “no binding (tested: 100 nM peptide)”.

B15: 27F12 (scFv)
scFv: B13 scFv with V103A, S149I, N150S, S170A, S171H, P172S, A173D
With B15, in the test with H3K36me3 peptide [12], the binding result is reported as “no binding (tested: 100 nM peptide)”.

B16: 20F87 (scFv)
scFv: EVQLVETGGGVVQPGRSLRLSCTASGFTFRDYWMSWVRQAPGKGLEWVADINPDGITRYYIDAVKGRFTISRDNAKSSLYLQMNSLGAEDTAVYYCAREFYGSWHFDLWGRGTLVTVSSSYVLTQPPSVSVAPGQTARITCGGTNISHSSGDVHWYQQRPGQAPLVVVYYSYARPSGIPERFSGSNSGNTATLTISRVEAGDEADYYCQVWDDSINAYVFGTGTKVTVL
As for B16, the binding result with H3K4me3 peptide [13] is “no binding (tested: 100 nM peptide)”.

B17: 20F109 (scFv)
scFv: EVQLVETGGGVVQPGRSLRLSCTASGFTFRDYWMSWVRQAPGKGLEWVADINPDGITRYYIDAVKGRFTISRDNAKSSLYLQMNSLGAEDTAVYYCAREFHPGRYDWHFDLWGRGTLVTVSSSYVLTQPPSVSVAPGQTARITCGGTNISSSSVHWYQQRPGQAPLVVVYDDNYRPSGIPERFSGSNSGNTATLTISRVEAGDEADYYCQVWDDSINAYVFGTGTKVTVL
With B17, the binding result with H3K4me3 peptide [13] is on record as “no binding (tested: 100 nM peptide)”.

B18: 20F78 (scFv)
scFv: EVQLVETGGGVVQPGRSLRLSCTASGFTFRDYWMSWVRQAPGKGLEWVADINPDGITRYYIDAVKGRFTISRDNAKSSLYLQMNSLGAEDTAVYYCAREFPNNYGWHFDLWGRGTLVTVSSSYVLTQPPSVSVAPGQTARITCGGTNIDHRVPVHWYQQRPGQAPLVVVYAYSSRPSGIPERFSGSNSGNTATLTISRVEAGDEADYYCQVWDDSINAYVFGTGTKVTVL
Consider B18, for which, in the test with H3K4me3 peptide [13], the binding result was “no binding (tested: 100 nM peptide)”.

B19: 20F94 (scFv)
scFv: EVQLVETGGGVVQPGRSLRLSCTASGFTFRDYWMSWVRQAPGKGLEWVADINPDGITRYYIDAVKGRFTISRDNAKSSLYLQMNSLGAEDTAVYYCAREFPYINIWHFDLWGRGTLVTVSSSYVLTQPPSVSVAPGQTARITCGGTNIADYTTVHWYQQRPGQAPLVVVYANSARPSGIPERFSGSNSGNTATLTISRVEAGDEADYYCQVWDDSINAYVFGTGTKVTVL
With B19, in the test with H3K4me3 peptide [13], the binding result was “no binding (tested: 100 nM peptide)”.

B20: scFv 4-5 (scFv)
scFv: EVQLVETGGGVVQPGRSLRLSCTASGFTFRDYWMSWVRQAPGKGLEWVADIKQDGSDKYYVDAVKGRFTISRDNAKSSLYLQMNSLGAEDTAVYYCARDFSRGSGWHFDLWGRGTLVTVSSGILGSGGGGSGGGGSGGGGSSYVLTQPPSVSVAPGQTARITCGGTNIGDISVHWYQQRPGQAPLVVVYDDSDRPSGIPERFSGSNSGNTATLTISRVEAGDEADYYCQVWDDSINAYVFGTGTKVTVL
notes: also called lead antibody; scFv 4-5 polypeptide
What is called Kd is the concentration at which binding is half-saturated. A low value points to tighter binding. As for B20, the Kd in the test with H3K4me3 peptide [14] and in the test with H3K4me3 peptide [15] was 5.1 µM each time.
